Read-outs that look alike come from different tables or passages of the source.

Consider eight molecules from patent US20170247447A1 (Hoffmann-La Roche, published 2017).

In test [1] the target is T1, human IL-1beta (human, UniProt P01584 117-269). The test can be described thus: cell-based or functional assay.
The target in test [2] is T1, human IL-1beta. The test can be described thus: cell-based or functional assay. This is another data set of the same source.
Test [3] has as its target T1, human IL-1beta. Kind of test: cell-based or functional assay. This is another data set of the same source.
Test [4] has as its target T1, human IL-1beta. Kind of test: cell-based or functional assay. This is another data set of the same source.
In test [5] the target is T1, human IL-1beta. Kind of test: cell-based or functional assay. This is another data set of the same source.
The target of test [6] is T1, human IL-1beta. The test can be described thus: cell-based or functional assay. This is another data set of the same source.
Test [7] addresses T1, human IL-1beta. The test can be described thus: cell-based or functional assay. This is another data set of the same source.
In test [8] the target is T1, human IL-1beta. The test can be described thus: SPR competition, 10 nM human IL-1beta pre-incubated with antibody, competitor immobilized human IL-1RI.
Experimental: All experiments were performed at 25° C. using HBS-P (10 mM His, 140 mM NaCl, 0.05% Tween 20 pH 7.4) as running and dilution buffer. Human IL-1RI was immobilized on a Series S CM5 Sensor Chip (GE Healthcare) using standard amine coupling chemistry. […] The surface was regenerated by injecting 10 mM NaOH for 60 sec at a flow rate of 5 μl/min. Bulk refractive index differences were corrected by subtracting the response obtained from a mock surface.
Test [9] has as its target T2, cynomolgus IL-1beta (cynomolgus, UniProt P79182 117-268). The test can be described thus: SPR (BIAcore), antibody captured via anti-Fc, IL-1beta in solution. On the technique in general: In SPR one partner is held on a chip, and binding of the other changes the refractive index at the surface.
Test [10] has as its target T1, human IL-1beta. The description is as above.
Test [11] concerns the target T2, cynomolgus IL-1beta. The test is described as above. The source holds these as a separate data set.
Experimental: (§1) All experiments were performed at 25° C. using HBS-P (10 mM His, 140 mM NaCl, 0.05% Tween 20 pH 7.4) as running and dilution buffer. Anti-human or anti-mouse Fc antibodies were immobilized on a Series S CMS Sensor Chip (GE Healthcare) using standard amine coupling chemistry. […] The dissociation phase was monitored for 600 sec by washing with running buffer. […] The surface was regenerated by injecting 3 M MgCl2 (for anti-human Fc antibody) or 10 mM Glycine pH 1.5 (for anti-mouse Fc antibody) for 60 sec at a flow rate of 5 μl/min. Bulk refractive index differences were corrected by subtracting the response obtained from a mock surface. Blank injections were subtracted (double referencing). The derived curves were fitted to a 1:1 Langmuir binding model using the BIAevaluation software.
For test [12], the target named is T1, human IL-1beta. Described as above. This is another data set of the same source.
Experimental: as §1
In test [13] the target is T1, human IL-1beta. The test can be described thus: immunoprecipitation radioimmunoassay with 125I-IL-1beta.
Experimental: Determination of antibody affinity—Monoclonal antibody affinity was determined from data obtained using an immunoprecipitation radioimmunoassay. Briefly, 5000 cpm/tube of ¹²⁵IIL-1beta was incubated with dilutions of purified monoclonal antibody in 0.3 ml of 1% non-fat dry milk/0.5% Thimerosal/PBS overnight at 4° C. Antigen-antibody complexes were precipitated by the addition of 100 μL/tube each of 10% normal mouse serum/PBS and 4 mg/ml goat anti mouse IgG sera in PBS. After 4 hours at 4° C., the 1/ml tube of ice-cold 2% polyethylene glycol-6000 was added and the tubes centrifuged at 3000*g for 20 min. at 4° C. The supernatants were aspirated and the pellets counted in a gamma counter.
Affinity constants were calculated using data obtained from an immunoprecipitation radioimmunoassay (RIA) of ¹²⁵IIL-1beta binding of different antibody concentrations as described above.
The target in test [14] is T1, human IL-1beta. Kind of test: SPR (BIAcore T200), antibody captured via anti-human Fc, human IL-1beta in solution.
Experimental: All experiments were performed at 25° C. using HBS-P (10 mM His, 140 mM NaCl, 0.05% Tween 20 pH 7.4) as running and dilution buffer. Anti-human Fc antibodies were immobilized on a Series S CM5 Sensor Chip (GE Healthcare) using standard amine coupling chemistry. Bispecific antibodies were captured on the surface leading to a capturing response of 100-200 RU. […] The dissociation phase was monitored for 600 sec by washing with running buffer. The surface was regenerated by injecting 3 M MgCl2 (for anti-human Fc antibody) or 10 mM Glycine pH 1.5 (for anti-mouse Fc antibody) for 60 sec at a flow rate of 5 μl/min. Bulk refractive index differences were corrected by subtracting the response obtained from a mock surface. Blank injections were subtracted (double referencing). The derived curves were fitted to a 1:1 Langmuir binding model using the BIAevaluation software.
The target in test [15] is T1, human IL-1beta. Kind of test: cell-based or functional assay. This is another data set of the same source.

T2 sequence (P79182 117-268 limits assumed): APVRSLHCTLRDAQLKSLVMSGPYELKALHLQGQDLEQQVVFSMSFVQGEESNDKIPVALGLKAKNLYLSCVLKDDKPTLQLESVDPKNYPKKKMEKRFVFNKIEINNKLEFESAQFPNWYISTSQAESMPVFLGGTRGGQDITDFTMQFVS

B1: Canakinumab (antibody, V domains shown)
VH: QVQLVESGGGVVQPGRSLRLSCAASGFTFSVYGMNWVRQAPGKGLEWVAIIWYDGDNQYYADSVKGRFTISRDNSKNTLYLQMNGLRAEDTAVYYCARDLRTGPFDYWGQGTLVTVSS
VL: EIVLTQSPDFQSVTPKEKVTITCRASQSIGSSLHWYQQKPDQSPKLLIKYASQSFSGVPSRFSGSGSGTDFTLTINSLEAEDAAAYYCHQSSSLPFTFGPGTKVDIKR
As for B1, the “EC50, reduction of IL-6 expression, A549 cells” value (“EC50, reduction” below) with human IL-1beta [1] is 0.0864 µg/mL; in the test with human IL-1beta [4], 0.12 nM. Also, the “IC50, inhibition of ICAM-1 expression, HUVEC cells” value (“IC50, inhibition … HUVEC cells” for short) in the test with human IL-1beta [2] was found to be 9.02 nM. The “IC50, inhibition of ICAM-1 expression, A549 cells” value (from here on “IC50, inhibition … A549 cells”) with human IL-1beta [3] is 0.31 nM.

B2: mumAb (novel murine anti-human IL-1beta antibody) (antibody, V domains shown)
VH: EVQLQQSGPELEKPGASVKISCKASGYSFTDYNMNWVRQSNGKSLEWIGNIDPYYGGTTYNQKFKDKATLTVDKSSSTAYMQLKSLTSEDSAVYYCAREGSPTRYYVMDYWGQGTSVTVSS
VL: DIQMTQSPASLSASVGETVTITCRASENIYSNLAWYQQKQGKSPQLLVYAATNLADGVPSRFSGSGSGTQFSLKINSLQPEDFGSYYCHHFYNTPWTFGGGTKLEIK
For the molecule B2, the “EC50, reduction” value in the test with human IL-1beta [5] came to 1.09 nM. For the same molecule, the “IC50, inhibition … A549 cells” value in the test with human IL-1beta [6] turned out to be 0.7 nM. The “IC50, inhibition … HUVEC cells” value with human IL-1beta [7] was found to be 16.5 nM.

B3: murine anti-IL-1beta antibody ILB1-H34 (antibody, mouse IgG1, V domains shown)
VH: EVQLQQSGPELVKTGASVKISCKASGYSFTGYYMHWVKQSHGKSLEWIGYISCYNAFTTYNQRFRGKATFTVDTSSSTAYMQFNSLTSEDSAVYYCVRSDYYGTSLYWGQGTTLTVSS
VL: QIVLTQSPAIMSASLGEEITLTCSASSSVSYMHWSQQKSGSSPKLLIYSTSNLASGVPSRFSGSGSGTFYSLTISSVEAEDAADYYCHQWSNYYTFGGGTKLEIK
notes: also called HLB1-H34
By IC50 is commonly meant the concentration needed to halve the response being measured. Read a low IC50 as higher potency. In general, Kd refers to a measure of binding affinity in units of concentration. High values mean lower affinity, low ones higher affinity. As usually defined, the koff is a measure of how fast the partners let go of each other. A high value points to fast dissociation. What is called kon is the second-order rate constant of association. Lower therefore signals slow association. As for B3, in the test with human IL-1beta [2], the “IC50, inhibition … HUVEC cells” value is 0.24 nM. In addition, the “IC50, inhibition … A549 cells” value with human IL-1beta [3] came to 0.18 nM. The same molecule had an IC50 in the test with human IL-1beta [8] of 3.5 nM. Moreover, the Kd with cynomolgus IL-1beta [9] was determined as 0.05 nM; in the test with human IL-1beta [10], 0.07 nM; with cynomolgus IL-1beta [11], 0.05 nM; with human IL-1beta [12] it was 0.07 nM. Besides, the koff came to 9.8e-05 s⁻¹ in the test with cynomolgus IL-1beta [9], 0.000127 s⁻¹ in the test with human IL-1beta [10], 9.8e-05 s⁻¹ with cynomolgus IL-1beta [11] and 0.000127 s⁻¹ with human IL-1beta [12]. In addition, the on-rate constant (kon) in the test with cynomolgus IL-1beta [9] was determined as 1.99e+06 M⁻¹ s⁻¹; with human IL-1beta [10], 1.85e+06 M⁻¹ s⁻¹; with cynomolgus IL-1beta [11], 1.99e+06 M⁻¹ s⁻¹; with human IL-1beta [12] it was 1.85e+06 M⁻¹ s⁻¹. The Ka with human IL-1beta [13] stood at 6.4e+10 M⁻¹.

B4: huH34-2 (antibody, V domains shown)
VH: QVQLVQSGAEVKKPGASVKVSCKASGYTFTGYYMHWVRQAPGQGLEWIGYISSYNAFTTYNQKFRGRATFTVDTSISTAYMELSRLRSDDTAVYYCVRSDYYGTSLYWGQGTLVTVSS
VL: EIVLTQSPATLSLSPGERATLSCRASSSVSYMHWSQQKPGQAPRLLIYSTSNLASGIPARFSGSGSGTDFTLTISSLEPEDFAVYYCHQWSNYYTFGQGTKLEIK
notes: Humanized, captured by anti-human Fc in SPR; also called huH34-2 bivalent
Broadly, the t½ is the time in which the quantity being followed falls by half. High values mean slow decline, low ones rapid decline. In the case of B4, the “IC50, inhibition … HUVEC cells” value in the test with human IL-1beta [2] amounted to 0.3 nM. In addition, the “IC50, inhibition … A549 cells” value with human IL-1beta [3] came to 0.23 nM. The t½ with human IL-1beta [14] stood at 101 s. Moreover, in the test with human IL-1beta [4], the “EC50, reduction” value was found to be 0.11 nM.

B5: antibody 0031 (bispecific anti-ANG2/IL-1beta CrossMab antibody) (bispecific antibody, V domains shown)
VH 1: QVQLVQSGAEVKKPGASVKVSCKASGYTFTGYYMHWVRQAPGQGLEWIGYISSYNAFTTYNQKFRGRATFTVDTSISTAYMELSRLRSDDTAVYYCVRSDYYGTSLYWGQGTLVTVSS
VL 1: EIVLTQSPATLSLSPGERATLSCRASSSVSYMHWSQQKPGQAPRLLIYSTSNLASGIPARFSGSGSGTDFTLTISSLEPEDFAVYYCHQWSNYYTFGQGTKLEIK
VH 2: not shown
VL 2: SYVLTQPPSVSVAPGQTARITCGGNNIGSKSVHWYQQKPGQAPVLVVYDTSDRPSGIPERFSGSNSGNTATLTISRVEAGDEADYYCQVWDSSSDHWVFGGGTKLTVLSS
notes: also called anti-IL-1beta/ANG2 antibody
For the molecule B5, the “EC50, reduction” value with human IL-1beta [1] was 0.017 µg/mL. Besides, the t½ with human IL-1beta [14] was 38 s. For the same molecule, in the test with human IL-1beta [15], the “IC50, inhibition … A549 cells” value is 0.104 µg/mL.

B6: huH34-3 (antibody, V domains shown)
VH: QVQLVQSGAEVKKPGASVKVSCKASGYTFTGYYMHWVRQAPGQGLEWIGYISSYSAFTTYNQKFRGRATFTVDTSISTAYMELSRLRSDDTAVYYCVRSDYYGTSLYWGQGTLVTVSS
VL: EIVLTQSPATLSLSPGERATLSCRASSSVSYMHWSQQKPGQAPRLLIYSTSNLASGIPARFSGSGSGTDFTLTISSLEPEDFAVYYCHQWSNYYTFGQGTKLEIK
With B6, in the test with human IL-1beta [3], the “IC50, inhibition … A549 cells” value amounted to 2.23 nM. Also, the “EC50, reduction” value in the test with human IL-1beta [4] is 1.09 nM.

B7: antibody 0032 (bispecific anti-VEGF/IL-1beta CrossMab antibody) (bispecific antibody, V domains shown)
VH 1: EVQLVESGGGLVQPGGSLRLSCAASGYDFTHYGMNWVRQAPGKGLEWVGWINTYTGEPTYAADFKRRFTFSLDTSKSTAYLQMNSLRAEDTAVYYCAKYPYYYGTSHWYFDVWGQGTLVTVSS
VL 1: DIQLTQSPSSLSASVGDRVTITCSASQDISNYLNWYQQKPGKAPKVLIYFTSSLHSGVPSRFSGSGSGTDFTLTISSLQPEDFATYYCQQYSTVPWTFGQGTKVEIK
VH 2: QVQLVQSGAEVKKPGASVKVSCKASGYTFTGYYMHWVRQAPGQGLEWIGYISSYNAFTTYNQKFRGRATFTVDTSISTAYMELSRLRSDDTAVYYCVRSDYYGTSLYWGQGTLVTVSS
VL 2: EIVLTQSPATLSLSPGERATLSCRASSSVSYMHWSQQKPGQAPRLLIYSTSNLASGIPARFSGSGSGTDFTLTISSLEPEDFAVYYCHQWSNYYTFGQGTKLEIK
notes: also called anti-IL-1beta/VEGF antibody
Regarding B7, the “EC50, reduction” value with human IL-1beta [1] came out at 0.0387 µg/mL. In the test with human IL-1beta [14], this molecule displayed a t½ of 38 s.

B8: huH34-1 (antibody, V domains shown)
VH: QVQLVQSGAEVKKPGASVKVSCKASGYTFTGYYMHWVRQAPGQGLEWMGYISSYSGFTTYAQKFQGRVTMTRDTSISTAYMELSRLRSDDTAVYYCARSDYYGTSLYWGQGTLVTVSS
VL: EIVLTQSPATLSLSPGERATLSCRASSSVSYMHWSQQKPGQAPRLLIYSTSNLASGIPARFSGSGSGTDFTLTISSLEPEDFAVYYCHQWSNYYTFGQGTKLEIK
As for B8, in the test with human IL-1beta [3], the “IC50, inhibition … A549 cells” value is > 7 nM. Also, in the test with human IL-1beta [4], the “EC50, reduction” value turned out to be 5.52 nM.
